From PMC10877566

Key:
Assay in all cases: bioluminescence (BRET) titration
[1] = system: LUMID-1C (NL1C-thiazole orange conjugate) C166S;G182C; settings: apparent, in base pairs; PBS pH 7.4, 0.1% (w/v) BSA, 5% DMSO, 1 nM sensor, 30 min at room temperature, then NanoGlo substrate 1:1000
[2] = system: LUMID-1F (NL1F-thiazole orange conjugate); settings: apparent, in base pairs; PBS pH 7.4, 0.1% (w/v) BSA, 5% DMSO, 1 nM sensor, 30 min at room temperature, then NanoGlo substrate 1:1000
[3] = system: LUMID-2C double-glycine (NL2C-2G-thiazole orange); settings: apparent, in base pairs; PBS pH 7.4, 0.1% (w/v) BSA, 5% DMSO, 1 nM sensor, 30 min at room temperature, then NanoGlo substrate 1:1000
[4] = system: LUMID-2C double-lysine (NL2C-2K-thiazole orange); settings: apparent, in base pairs; PBS pH 7.4, 0.1% (w/v) BSA, 5% DMSO, 1 nM sensor, 30 min at room temperature, then NanoGlo substrate 1:1000
[5] = system: LUMID-2C single-lysine (NL2C-1K-thiazole orange); settings: apparent, in base pairs; PBS pH 7.4, 0.1% (w/v) BSA, 5% DMSO, 1 nM sensor, 30 min at room temperature, then NanoGlo substrate 1:1000
[6] = system: LUMID-2C triple-lysine (NL2C-3K-thiazole orange); settings: apparent, in base pairs; PBS pH 7.4, 0.1% (w/v) BSA, 5% DMSO, 1 nM sensor, 30 min at room temperature, then NanoGlo substrate 1:1000
[7] = system: LUMID-2F (NL2F-thiazole orange); settings: apparent, in base pairs; Hill n 0.65 per Fig 3 legend; PBS pH 7.4, 0.1% (w/v) BSA, 5% DMSO, 1 nM sensor, 30 min at room temperature, then NanoGlo substrate 1:1000
[8] = system: LUMID-3C (NL3C-thiazole orange); settings: apparent, in base pairs; Hill n not fixed to 1 per Methods; PBS pH 7.4, 0.1% (w/v) BSA, 5% DMSO, 1 nM sensor, 30 min at room temperature, then NanoGlo substrate 1:1000

Chain of LUMID-1C (NL1C-thiazole orange conjugate) C166S;G182C (chain, as listed by the source C166S G182C): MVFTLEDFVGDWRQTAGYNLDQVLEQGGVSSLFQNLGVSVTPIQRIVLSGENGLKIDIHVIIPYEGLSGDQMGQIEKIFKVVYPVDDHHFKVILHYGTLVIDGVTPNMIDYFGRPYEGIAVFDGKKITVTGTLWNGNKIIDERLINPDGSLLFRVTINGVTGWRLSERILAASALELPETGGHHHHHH

sheared salmon sperm dsDNA (~2000 bp fragments)
Kd [1]: 3100 µM | Kd [2]: 4100 µM | Kd [3]: 279 µM | Kd [4]: 27 µM | Kd [5]: 142 µM | Kd [6]: 21 µM | Kd [7]: 43 µM | Kd [8]: 2.1 µM
